Reference: the nanobody polyreactivity screen of Harvey et al. (2022)

Test: yeast display, Sf9 membrane polyspecificity reagent, FACS + sequencing; frameworks hold sequencing errors
How it was run: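 Genes from sorted yeast were amplified by colony PCR, read by MiSeq 2 × 250 sequencing and filtered on CDR length. These cells carried a synthetic nanobody library in Saccharomyces cerevisiae BJ5465 and were sorted by FACS into low and high (top ~1%) gates on anti-HA and streptavidin fluorescence. Polyreactivity is labelled according to the gate of origin.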

| Sequence | polyreactivity (PSR sort gate) |
| --- | --- |
| QVQLVESGGGLVQAGGSLRLTCAASGFTFSYYTMGRYRQAPGKERELVAAISSGGSTYYADSVKGRFTISRDNAKNSVYLQMNSLKPEDTAVYYCNAYYGSYSPANGEYWGQGTQVTVSS | high polyreactivity |
| QVQLVESGGGLVQAGGSLRLSCAASGITFSYNVMGWYRQAPGKEREFVAAISDGGSTYYADSVKGRFTISRDNAKNTVYLQMNSLKPEDTAVYFCAKGYRYTYSQQVIYDYYYWGQGTQVTVSS | low polyreactivity |
| QVQLLESGGGLVQAGGSLRLSCAASGRIFVVNAMGWYRQAPGKERELVATITRGASTYADSVKGRFTISRDNAKNTVYLQMNSLKPEDTAVYYCAAAKRPQVVRYDWTKLEYWGQGTQVTVSS | high polyreactivity |
| QVQLVESGGGLVQAGGSLRLSCADSGITFFTYAMGRYRQAPGKERELVAAISGSGGSTYYADYVKWRFTISRDNAKNTVYLQMNSLKPEDTEVYYCAAEYTYGSPYDYWGQGTQVTVSS | low polyreactivity |
| QVQLVESGGGLVQAGGSLRLSCAASGFIFSTNFMGWYRQAPGKERELVADINTGGSTSYADSVKGRFTISRDNAKNTVYLQMNSLKPEDTAVYYCAAVLQYYYLSTDDPYDYWGQGTQVTVSS | low polyreactivity |
| QVQLVESGGGLVQAGGSLRLSCAASGFIFDQNAMGWYRQAPGKERELVAAISKRGGSTYYADSVKGRFTISRDNAKNTVYLQMNSLKPEDTAVYYCATRSWGPYYYGYNHWGQGTQETVSS | high polyreactivity |
| QVQLVESGGGLVQAGGSLRLSCAASGFILLYYAMGWYRQAPGKERELVAANSWTGGRTYYADSVKGRFTISRDNAKNTVYLQMTSLKPEDSAVYYCNTDKFFGRKYGYWGQGTQVTVSS | low polyreactivity |
| QVQLVESGVGLVQARGSLRLSCAASGITFRRYAMGWYRQPPGKERELVAAITSSGGSTYYADSVKGRFTIPRDNAKNTVYLQMNSLKPEDTAVYYCAAAFFSQYYLYDYWGQGTQVTVSS | high polyreactivity |
| QVQLVESGGGLVQAGGSLRLSCAASGSIFYWYAMGWYRQAPGKERELVAAITRAGSTNYADSVKGRFTISRDNAKNTVYLQMNSLKPEDTAVYYCAVAVTSYSSKKLYYWGQGTQVTVSS | low polyreactivity |
| QVQLVQSGGGLVQAGGSLRLSCAASGSTIAYKAMGWNRQAPGKEREMLAAISWRGGSTYYADSVKGRFTISRDNAKNTVYLQMKSLKPEDTAVYYCAKVYRAYTDVVRYGYWGQGSQVTVSS | high polyreactivity |
| QVQLVESGGGLVQAGGSLRLSCAASGRIWVYAMGWYRQAPGKERELVATITYNSGRTYYADSVKGRFTISRDNAKNTVYLQMNSLKPEDTAVYYCNADFWYSYRRGYGYWGQGTQVTVSS | high polyreactivity |
| QVQLVESGGGLVQAGGSLRLSCAASGRTFGLYAMGWYRQAPGKERELVAAISSGVSTNYADSVKGRFTISRDNAKNTVYLQMNSLKPEDTAVYYCAAKNYYPRVNYWGQGTQVTVSS | high polyreactivity |
| QVQLVESGGGLVQAGASLRLSCAASGSIFIYYAMGWYRQAPGKERELVAAISGGGRTNYADSVKGRFTISRDNAKNTVYLQMNSLKPEDTAVYYCAADPVYWYSTMDFWGQGTQVTVSS | low polyreactivity |
| QVQLVESGGGLVQAGGSLRLSCAASGITFFTYAMGWYRQAPGKERELVAAISGSGGSTYYADSVKGRFTISRDNAKNTVYLQMNSLKPEDTAVYYCATDTGYPYSYDLYDSYYWGQGTQVTVSS | low polyreactivity |
| QVQLVESGGGLVQAGGSLRLSCAASGRTFTQYAMRWYRQAPGKERELVAAISWRGGSTYYADSVKGRFTISRDNAKNTVYLQMNSLKPEDTAVYYCAKRYFRGYPLYDYWGQGTQVTVSS | high polyreactivity |
| QVQLVESGGGLVQAGGSLRVSCAASGFTFDQYAMGWYRQAPGKERELVAAISWSGASTYYADSVKGRFTISRDNAKNTDDLQMNSLKPEDTAVYYCAVSRRRIDYDYWGQGTQVTVSS | high polyreactivity |
| QVQLVESGGGLVQAGGSLRLSCAASGSIFHGNAMGWNRQAPGKERELVATISSGGSTYYADSVKGRFTISRDNAKNTVYLQMNSLKPEDTAVYYCAAEYWNGPYYGDPFEYDYWGQGTQVTVSS | low polyreactivity |
